Here are results for five molecules from PMC4031048, “Six Homeoproteins and a linc-RNA at the Fast MYH Locus Lock Fast Myofiber Terminal Phenotype”.

This data set deals with T1, Six1 (Mus musculus, UniProt Q62231 1-284).
T1 sequence: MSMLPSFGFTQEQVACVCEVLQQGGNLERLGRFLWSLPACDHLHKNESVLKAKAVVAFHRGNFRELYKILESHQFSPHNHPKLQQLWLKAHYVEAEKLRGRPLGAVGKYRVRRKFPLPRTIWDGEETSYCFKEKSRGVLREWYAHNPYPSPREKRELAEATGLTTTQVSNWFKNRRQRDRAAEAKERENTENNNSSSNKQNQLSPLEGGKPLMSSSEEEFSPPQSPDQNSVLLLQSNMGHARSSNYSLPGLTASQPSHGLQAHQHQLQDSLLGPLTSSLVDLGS
In words: competition EMSA; 10x and 100x vs labeled Myogenin MEF3; EMSA as previously described (ref 38); buffer, salt, pH and temperature not given. The following applies: protein: ivt; blunt.

B1: Enh6 (dsDNA)
DNA 1: CGTCAAGGAAACCTTATTCCATC
DNA 2: GATGGAATAAGGTTTCCTTGACG
With B1, the binding result was “binds”.

B2: Enh2 (dsDNA)
DNA 1: TCATAAGGAAATCTAAGTCAACC
DNA 2: GGTTGACTTAGATTTCCTTATGA
For the molecule B2, the binding result is given as “binds”.

B3: Enh4 (dsDNA)
DNA 1: GGGGTAAGAAATCTGACGACAGG
DNA 2: CCTGTCGTCAGATTTCTTACCCC
For the molecule B3, the binding result is “binds”.

B4: Enh1 (dsDNA)
DNA 1: CTCTTGGGTAACTGGAGCCCCTC
DNA 2: GAGGGGCTCCAGTTACCCAAGAG
Turning to B4, the binding result is “binds”.

B5: Enh3 (dsDNA)
DNA 1: TGTAAGAGAAACTGAAATAAAAT
DNA 2: ATTTTATTTCAGTTTCTCTTACA
With B5, the binding result was “binds”.
